Source: publication PMC12102759

Target: G3BP1 NTF2-like domain (human) (UniProt Q13283)
Experiment: fluorescence polarisation

Sequence of G3BP1 NTF2-like domain (human) (Q13283 1-139): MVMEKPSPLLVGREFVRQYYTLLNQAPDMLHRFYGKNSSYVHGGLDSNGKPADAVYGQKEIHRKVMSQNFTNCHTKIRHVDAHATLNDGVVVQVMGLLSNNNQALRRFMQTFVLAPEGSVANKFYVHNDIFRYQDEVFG

SARS-CoV-2 N wt peptide 12-26 (peptide; other documents disagree on this pair)
IC50: 8.7 µM
